Data taken from patent US12303551B2, “Cellular immunotherapy compositions and uses thereof” (CERO THERPEUTICS HOLDINGS, INC., priority 2018, dated 2025).

How the values were obtained:
SCC152 target cells = test: Phagocytosis of SCC152 by CD4+ T cell/CER, fluorescence microscopy with hybrid capture; format: cell-based; details: TRAF-domain CERs, 4 hours, 1:1:0.5 (CD8:CD4:target cell); versus CD4+ control + CD8+/E7 TCR
Procedure: (§1) FIG. 28 is a bar graph representing quantification of CD4+ T cell-CER mediated phagocytosis of SCC152 target cells. Results calculated as ((number of phagocytic target events)/(total number of effectors))*100 from 3×3 40× images, 4 hours after initiation of co-culture assay. CD8+ T cells transduced with HPV16 E7 TCR and CD4+ T cells transduced with selected CERs (CER5, CER17, CER19, CER21, CER23, CER26, CER27, CER103b, CER104, CER105, CER106, or CER116) were co-cultured with SCC152 squamous head and neck carcinoma target cells at a 1:1:0.5 ratio for 4 hours and imaged.
as §1, with “29” for “28”, “(median area ratio” for “((number”, “of” for “of phagocytic”, “events in effector cells*% phagocytosis)” for “events)/(total number of effectors))*100”
(§2) FIG. 55 is a bar graph representing quantification of CD4+ T cell-CER mediated phagocytosis of SCC152 target cells. Percent phagocytosis was calculated as ((number of phagocytic target events)/(total number of effector cells))*100. These numbers were calculated from 3×3 images captured by Keyence BZ-X710 fluorescence microscope at 40× resolution, 4 hours after initiation of co-culture assay. CD8+ T cells transduced with HPV16 E7 TCR and CD4+ T cells transduced with a selected CER (CER29, CER30, CER110, CER112, CER113, CER114, CER116, or CER117) were co-cultured with SCC152 target cells at a 1:1:0.5 ratio (CD8:CD4:target cell) for 4 hours and imaged.
as §2, with “56” for “55”, “Adjusted phagocytic index” for “Percent phagocytosis”, “(median area ratio” for “((number”, “of” for “of phagocytic”, “events in” for “events)/(total number of”, “cells*% phagocytosis).” for “cells))*100.”
Phagocytic activity of CD4+ T cell/CER+CD8+ T cell/HPV16 E7 TCR combinations co-cultured with SCC152 cells was visualized and quantified using KEYENCE BZ-X710 fluorescence microscope, […] and hybrid capture software.

SCC152 cells = test: Elimination of GFP-expressing SCC152 target cells over time (quantification and time lapse imaging); format: cell-based; details: for elimination of SCC152 cells, time lapse imaging: 0 to 36 hrs, compared to the control; for elimination of SCC152 cells (GFP quantification): by 36 hrs, 1:1:1 ratio (CD8:CD4:target cell), compared to control
Procedure, shortened: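 GFP-labelled SCC152 (HPV16+) target cells were co-cultured at 1:1:1 with CD8+ T cells carrying an HPV16 E7 TCR and with CD4+ T cells transduced with a chimeric CER or a control. Remaining target cells were counted by fluorescence imaging and automated software at 0, 12, 24, 36 h or 0, 24, 48 h.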

Molecule	engulfment of SCC152 target cells (percent phagocytosis, adjusted phagocytic index) (SCC152 target cells)	elimination of SCC152 cells, time lapse imaging (SCC152 cells)	elimination of SCC152 cells (GFP quantification) (SCC152 cells)
CER114: Chimeric engulfment receptor: Tim4 binding, Tim4 transmembrane, TRAF6 and MERTK signaling; SEQ ID NO: 150 (protein, CER114, amino acids 1-22 are signal peptide) MSKGLLLLWLVTELWWLYLTPAASEDTIIGFLGQPVTLPCHYLSWSQSRNSMCWGKGSCPNSKCNAELLRTDGTRIISRKSTKYTLLGKVQFGEVSLTISNTNRGDSGVYCCRIEVPGWFNDVKKNVRLELRRATTTKKPTTTTRPTTTPYVTTTTPELLPTTVMTTSVLPTTTPPQTLATTAFSTAVTTCPSTTPGSFSQETTKGSAFTTESETLPASNHSQRSMMTISTDIAVLRPTGSNPGILPSTSQLTTQKTTLTTSESLQKTTKSHQINSRQTILIIACCVGFVLMVLLFLAFLMSLLNCENSCGSSQSESDCCVAMASSCSAVTKDDSVGGTASTGNLSSSFMEEIQGYDVEFDPPLESKYECPICLMALREAVQTPCGHRFCKACIIKSIRDAGHKCPVDNEILLENQLFPDNFAKREILSLMVKCPNEGCLHKMELRHLEDHQAHCEFALMDCPQCQRPFQKFHINIHILKDCPRRQVSCDNCAASMAFEDKEIHDQNCPLANVICEYCNTILIREQMPNHYDLDCPTAPIPCTFSTFGCHEKMQRNHLARHLQENTQSHMRMLAALRRRVQETKFGGAFSEEDSQLVVNYRAKKSFCRRAIELTLQSLGVSEELQNKLEDVVIDRNLLVLGKVLGEGEFGSVMEGNLKQEDGTSQKVAVKTMKLDNFSQREIEEFLSEAACMKDFNHPNVIRLLGVCIELSSQGIPKPMVILPFMKYGDLHTFLLYSRLNTGPKYIHLQTLLKFMMDIAQGMEYLSNRNFLHRDLAARNCMLRDDMTVCVADFGLSKKIYSGDYYRQGRIAKMPVKWIAIESLADRVYTSKSDVWAFGVTMWEITTRGMTPYPGVQNHEMYDYLLHGHRLKQPEDCLDELYDIMYSCWSADPLDRPTFSVLRLQLEKLSESLPDAQDKESIIYINTQLLESCEGIANGPSLTGLDMNIDPDSIIASCTPGAAVSVVTAEVHENNLREERYILNGGNEEWEDVSSTPFAAVTPEKDGVLPEDRLTKNGVSWSHHSTLPLGSPSPDELLFVDDSLEDSEVLM	enhanced engulfment	enhanced elimination of SCC152 cells	nearly complete elimination
CER112: Chimeric engulfment receptor: Tim4 binding, Tim4 transmembrane, TRAF6 and NFAM1 signaling; SEQ ID NO: 148 (protein, CER112, amino acids 1-22 are signal peptide) MSKGLLLLWLVTELWWLYLTPAASEDTIIGFLGQPVTLPCHYLSWSQSRNSMCWGKGSCPNSKCNAELLRTDGTRIISRKSTKYTLLGKVQFGEVSLTISNTNRGDSGVYCCRIEVPGWFNDVKKNVRLELRRATTTKKPTTTTRPTTTPYVTTTTPELLPTTVMTTSVLPTTTPPQTLATTAFSTAVTTCPSTTPGSFSQETTKGSAFTTESETLPASNHSQRSMMTISTDIAVLRPTGSNPGILPSTSQLTTQKTTLTTSESLQKTTKSHQINSRQTILIIACCVGFVLMVLLFLAFLMSLLNCENSCGSSQSESDCCVAMASSCSAVTKDDSVGGTASTGNLSSSFMEEIQGYDVEFDPPLESKYECPICLMALREAVQTPCGHRFCKACIIKSIRDAGHKCPVDNEILLENQLFPDNFAKREILSLMVKCPNEGCLHKMELRHLEDHQAHCEFALMDCPQCQRPFQKFHINIHILKDCPRRQVSCDNCAASMAFEDKEIHDQNCPLANVICEYCNTILIREQMPNHYDLDCPTAPIPCTFSTFGCHEKMQRNHLARHLQENTQSHMRMLALWNKKRMRGPGKDPTRKCPDPRSASSPKQHPSESVYTALQRRETEVYACIENEDGSSPTAKQSPLSQERPHRFEDDGELNLVYENL	enhanced engulfment	enhanced elimination of SCC152 cells	nearly complete elimination
CER113: Chimeric engulfment receptor: Tim4 binding, Tim4 transmembrane, TRAF6 and Baff-R signaling; SEQ ID NO: 149 (protein, CER113, amino acids 1-22 are signal peptide) MSKGLLLLWLVTELWWLYLTPAASEDTIIGFLGQPVTLPCHYLSWSQSRNSMCWGKGSCPNSKCNAELLRTDGTRIISRKSTKYTLLGKVQFGEVSLTISNTNRGDSGVYCCRIEVPGWFNDVKKNVRLELRRATTTKKPTTTTRPTTTPYVTTTTPELLPTTVMTTSVLPTTTPPQTLATTAFSTAVTTCPSTTPGSFSQETTKGSAFTTESETLPASNHSQRSMMTISTDIAVLRPTGSNPGILPSTSQLTTQKTTLTTSESLQKTTKSHQINSRQTILIIACCVGFVLMVLLFLAFLMSLLNCENSCGSSQSESDCCVAMASSCSAVTKDDSVGGTASTGNLSSSFMEEIQGYDVEFDPPLESKYECPICLMALREAVQTPCGHRFCKACIIKSIRDAGHKCPVDNEILLENQLFPDNFAKREILSLMVKCPNEGCLHKMELRHLEDHQAHCEFALMDCPQCQRPFQKFHINIHILKDCPRRQVSCDNCAASMAFEDKEIHDQNCPLANVICEYCNTILIREQMPNHYDLDCPTAPIPCTFSTFGCHEKMQRNHLARHLQENTQSHMRMLASWRRRQRRLRGASSAEAPDGDKDAPEPLDKVIILSPGISDATAPAWPPPGEDPGTTPPGHSVPVPATELGSTELVTTKTAGPEQQ	enhanced engulfment	enhanced elimination of SCC152 cells	nearly complete elimination
